# Source: WO2005107784A1 (dated 2005)
# T1: human Mpl (full length, expressed on BaF3 cells) (human, UniProt P40238 26-635)
# T1 sequence: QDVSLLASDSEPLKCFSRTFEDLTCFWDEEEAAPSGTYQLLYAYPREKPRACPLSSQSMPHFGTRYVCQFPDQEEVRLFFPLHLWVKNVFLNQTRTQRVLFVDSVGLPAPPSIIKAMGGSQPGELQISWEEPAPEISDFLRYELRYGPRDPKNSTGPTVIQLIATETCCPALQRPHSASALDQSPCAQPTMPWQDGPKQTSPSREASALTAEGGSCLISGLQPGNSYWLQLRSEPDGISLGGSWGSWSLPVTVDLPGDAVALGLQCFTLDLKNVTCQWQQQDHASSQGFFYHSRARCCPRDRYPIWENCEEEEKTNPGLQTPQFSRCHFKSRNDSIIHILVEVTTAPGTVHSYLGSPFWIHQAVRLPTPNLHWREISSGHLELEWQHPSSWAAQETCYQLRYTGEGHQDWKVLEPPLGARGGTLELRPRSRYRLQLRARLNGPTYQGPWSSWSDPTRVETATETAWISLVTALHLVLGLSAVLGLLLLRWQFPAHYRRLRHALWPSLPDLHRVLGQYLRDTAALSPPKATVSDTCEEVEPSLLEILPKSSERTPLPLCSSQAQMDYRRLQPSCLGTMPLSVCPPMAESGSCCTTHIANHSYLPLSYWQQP
# B1: VB22B sc(Fv)2 (scFv)
# scFv: QVQLQQSGPELVKPGASVKISCKASGYAFTNSWMNWVKQRPGKGLEWIGRIYPGDGETIYNGKFRVKATLTADKSSSTAYMDISSLTSEDSAVYFCARGYDDYSFAYWGQGTLVTVSAGGGGSGGGGSGGGGSDIVMTQAAPSIPVTPGESVSISCRSSKSLLHSNGNTYLYWFLQRPGQSPQLLIYRMSNLASGVPDRFSGSGSGTAFTLRISRVEAEDVGVYYCMQHIEYPFTFGSGTKLEIKGGGGSGGGGSGGGGSQVQLQQSGPELVKPGASVKISCKASGYAFTNSWMNWVKQRPGKGLEWIGRIYPGDGETIYNGKFRVKATLTADKSSSTAYMDISSLTSEDSAVYFCARGYDDYSFAYWGQGTLVTVSAGGGGSGGGGSGGGGSDIVMTQAAPSIPVTPGESVSISCRSSKSLLHSNGNTYLYWFLQRPGQSPQLLIYRMSNLASGVPDRFSGSGSGTAFTLRISRVEAEDVGVYYCMQHIEYPFTFGSGTKLEIK
# B2: anti-human Mpl antibody VB22B IgG (antibody, V domains shown)
# VH: QVQLQQSGPELVKPGASVKISCKASGYAFTNSWMNWVKQRPGKGLEWIGRIYPGDGETIYNGKFRVKATLTADKSSSTAYMDISSLTSEDSAVYFCARGYDDYSFAYWGQGTLVTVSA
# VL: DIVMTQAAPSIPVTPGESVSISCRSSKSLLHSNGNTYLYWFLQRPGQSPQLLIYRMSNLASGVPDRFSGSGSGTAFTLRISRVEAEDVGVYYCMQHIEYPFTFGSGTKLEIK
# B3: VB22B Diabody (scFv)
# scFv: QVQLQQSGPELVKPGASVKISCKASGYAFTNSWMNWVKQRPGKGLEWIGRIYPGDGETIYNGKFRVKATLTADKSSSTAYMDISSLTSEDSAVYFCARGYDDYSFAYWGQGTLVTVSAGGGGSDIVMTQAAPSIPVTPGESVSISCRSSKSLLHSNGNTYLYWFLQRPGQSPQLLIYRMSNLASGVPDRFSGSGSGTAFTLRISRVEAEDVGVYYCMQHIEYPFTFGSGTKLEIK
# Key:
# [1] = molecular target: human Mpl (full length, expressed on BaF3 cells) (human) (UniProt P40238); assay: cell-based or functional assay
# [2] = molecular target: T1, human Mpl (full length, expressed on …); assay: cell-based or functional assay
Molecule,"BaF-human Mpl EC50 (cell proliferation, WST-8) [1] [nM]","TPO-like agonist activity, BaF-human Mpl EC50 (cell proliferation, WST-8) [2] [nM]"
"recombinant human TPO (rhTPO, R&D) (from UniProt P40225 22-353) (ligand)",0.076,
B1,,0.027
B2,,> 30
B3,,0.061
